Results: the nanobody polyreactivity screen of Harvey et al. (2022)

Assay: yeast display, Sf9 membrane polyspecificity reagent, FACS + sequencing; frameworks hold sequencing errors
Outline: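 Genes from sorted yeast were amplified by colony PCR, read by MiSeq 2 × 250 sequencing and filtered on CDR length. These cells carried a synthetic nanobody library in Saccharomyces cerevisiae BJ5465 and were sorted by FACS into low and high (top ~1%) gates on anti-HA and streptavidin fluorescence. Polyreactivity is labelled according to the gate of origin.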

Sequence | polyreactivity (PSR sort gate)
QVQLVESGGGLVQARGSLRLSCAASGFIVSPNVMGWYRQAPGKERELVAVISSTGSTYYADSVKGRFTISRDNAKNTVYLQMNSLKPEDTAVYHCNADYSWYGSSGRPGYDYWGQGTQVTVSS | low polyreactivity
QVQLVESGGGLVQAGGSLRLSCAASGRIFRPNAMGWYRQAPGKERELVATITSDGSTKYADSVKGRFTISRDNAKNTVYLQMNSLKPEDTAVYYCAVRWARRYRYYYWGQGTQVTVSS | high polyreactivity
QVQLVESVGGLFHEGGSLRLSSAASGFIFWANAMGCYRQAPGKERELVAAIRNSGGRTYYADSVKGRFTISRDKAKNTVYLQMNSLKPEDTAVYFCATDTGYPYSYDLFDSYYWGQGTQLTVSS | low polyreactivity
QVQLVESGGGLVQAGGSLRLSCAASGGIFVGNAMGWYRQAPGKERELVAAITYRGGRTYYADSVKGRFTISRDNAKNTVYLQMNSLKPEDTAVYYCNAYKQGGRSKYNYWGQGTQVTVSS | high polyreactivity
QVQLVESGGGLVQAGGSLRLSCAASGSIFDVNAMGWYRQAPGKEREFVASITWSGGSTYYADSVKGRFTISRDNAKNTVYLQMNSLKPEDTAVYYCAARPVWVSGYLQYVYCGQGTQVTVSS | low polyreactivity
QVQLVESGGGLVQAGGSLRLSCAASGNTFSQYAMGWYRQAPGKERELVATISKSSGSTSYADSVKGRFTISRDNAKNTVYLQMNSLKPEDTAVYYCNADSSDVYHHLGVLFFSTWYDYWGQGTQVTVSS | low polyreactivity
QVQLVESGGGLVQAGGSLRLSCAASGRMFSAYAMGWYRQAPGKERELVAAITSVGSTKYADSVKGRFTISRDNAKNTVYLQMNSLKPEDTAVYYCAAEYTRSFYIYYRFGYWGQGTQVTVSS | high polyreactivity
QVQLVESGGGLVQAGGSLRLSCAASGSTFLYYAMGWYRQAPGKERELVAVITGAGGTNYADSVKGRFTISRDNAKKTVYLQMNSLKPEDTAVYYCAARSPGTRWGDYDYWGQGTQVTVSS | low polyreactivity
QVQLVESGAGLVQAGGSLRISCDASGSIFWSYAMGWYRQAPGKERELVADITGIGGSTYYADSVKGRFTISRDNAKNTVYLQMNSLKPEDTAVYYCAADTWFTAQTYNFYYRGQGTQVTVSS | high polyreactivity
QVQLVESGGGLVQAGGSLRLSCAASGRTLWYYTMGWYRQAPGKERELVADITRGTSTNYADSVKGRFTISRDNAKNSVYLQMNSLKPEDTAVYYCNRAHGRSRYSRDYESWGQGTQVTVSS | low polyreactivity
QVQLVESGGGLVQAGGSLRLSCAASGFIFYSYAMGWYRQAPGKERELVAAITEDGDSTYYADSVKGRFTISRDNAKNTVYLQMNSLKPEDTAVYYCNTDLTFNGTSGDYDYWGQGTQVTVSS | low polyreactivity
QVQLVESGGGLVQAGGSLRLTCAASGITFGGYAMGWYRQAPGKERELVATITSGGSTYYADSVKGRFTISRDNAKNTVYLQMNSLKPEDTAVYYCNAVYNYWFWGGYWHRPNARGDYWGQGTQVTVSS | high polyreactivity
QVQLVESGGGLVQAGGSLRLSCAASGRTFTRYAMGWYRQAPGKERELVAAISRSGGSTHYADSVKGRFTISRDNAKNTVYLQMNSLKPEDTAVYFCNTVGYRGRSNSRFYYWGQGTQVTVSS | high polyreactivity
QVQLVESRGGLVQAGGSLRLSCAASGFIFSYYAMGWYRQAPGKERELVAAISGLGGSTYYADSVKGRFTISRDNAKNTVYLQMNSLKPEDTAVYYCAATTLRYYRHGDYWGQGTQVTVSS | low polyreactivity
QVKLVESGGGLVQAGGSLRLSCAASGRTFKYYAMGWYRQAPGKERELVAAISWSGGSTYYADSVMGRFTISRDNAKNTVYLQMNSLKPEDTAVYYCAAVRNYHGTWYDYWGQGTQVTVSS | high polyreactivity
QAQLVDSGGGLVQEGGSLRLSCAASGLIFDANVMGSYRQAPGKERELVAAISWSGGRTYYADSVKGRFTISRDNAKNTVFFQMNSMNPEVTAVYYCAADTWPDMHDYWGQGTQVTVSS | low polyreactivity
QVQLVESGGGLVQAGGRLRLSCAASGFTFSYNTMGWYRQEPGKERELVAAITGDVSTNYADSVKGRFTISRDNAKNTVYLQMNSVKPEDTAVYYCAARPNFPGYEDLSVDYDYWGQGTQVTVSS | low polyreactivity
QVQLVESGGGLVQAGGSLRLSCAASGSTFSPYAMGWYRQAPGKERELVAGITGNGGSTRYADSVKGRFTISRDNAKNTVYLQMNSLKPEDTAVYYCAARWTRQRYRTSYYSWGQGTQVTVSS | high polyreactivity
QVQLVESGGGLVQAGGSLRLSCAASGITFNYNAMGWYRQAPGKERELVARITWSGTRTYYADSVKGRFTISRDNSKNTVYFQMNSLKPEDTAVYYCNAGPYARYYWGQGTQVTVSS | high polyreactivity
QVQLVESGGGLVQAGGSLRLSCAASGYIFGVYVMGWYRQAPGKERELVAAITRGGGNTYYADSVKGRFTFSRDNAKNPVYLQMNSLKPEDTAVYYCAARSLKSLSRYYYWGQGTQVTVSS | high polyreactivity

Sequence | polyreactivity (PSR sort gate)
QVQLEESGGGLVQAGGSLRLSCAASGSIFHYYTMGWYRQAPGKERELVAAITSSGGSTYYADSVKGRFTISRDNAKNTVYLQMNSLKPEDTAVYYCNKVRYRGYLYVPIYVGYNYWGQGTQVTVSS | high polyreactivity
QVQLVESGGGLVQAGGSLRLSCAASGRIFVANAMGWYRQAPGKERELVAAISGRGSRTYYADSVKGRFTISRDNAKNAVYLQMNSLKPEDTAVYYCNARQRRNPGGYGYWGQGTQVTVSS | high polyreactivity
QVQLEESGGGLVQAGGSLRLICAASGRIFDYYTMGWYRQAPGKERELVAAISSSGGSTYYADSVKGRFTISRDNAKNTVYLQMNSLKPEDPAVYYCNASVINEMNYWGQGTQVTVSS | low polyreactivity
QVQLVESGGGLVQAGGSLRLSCAASGSTFRVYAMGWYRQAPGKERELVAAISWSGGRTYYADSVKGRFTISGDNAKNTVYLQMNSLKTEDTAVYYCAADTYGRYDYWGQGTQVTVSS | high polyreactivity
QVQLVESGGGLVQAGGSLRLSCAASGRTFTRNAMGWYRQAPGKERELVAVITSSGRTNYADSVKGRFTISRDNAKNTVYLQMNSLKPEDTAVYYCNKVSARYPYPLYDYWGQGTQVTVSS | high polyreactivity
QVQLVESGGGLVQAGGSLRLSCAASGNIFTYYAMGWYRQAPGKERELVAAIRWRSGSTYYADSVKGRFTISRDNAKNTVYLQMNSLKPEDTAVYYCAADGTPYEYDYWGHGTQVTVSS | low polyreactivity
QVQLVESGGGLVQAGGSLRLSCAASGSTFVSYAMGWYRQAPGKERELVAAITWRGDSTYYADSVKGRFTLSRDNAKNTVYLQMNSLKPEDTAVYYCAADGRSWRYYSPYYYWGQGTQVTVSS | low polyreactivity
QVQLVESGGGLVQAGGSLRLSCAASGRILRFYAMGWYRQAPGKERELVATISRSGGSTYYADSVKGRFTISRDNAKNTVYLQMNSLKPEDTAVYYSNAKFKGVSYKMDYWGQGTQVTVSS | high polyreactivity
QVQLVESGGGLVQAGGSLRLSCAASGRTFVVYAMGWYRQAPGKERELVAVISFTGDSTFYADSVKGRFTISRDNAKNTVYLQMNSLKPEDTAVYYCAADLDWSPHFGLPYDYWGQGTQVTVSS | low polyreactivity
QVQLVESGGGLVQAGGSLRLSCAASGSIFWYYAMGWYRQAPGKERELDASITRGGSTKYADSVKGRFTISLDNAKNPVYLQMNSLKPEDTAVYYCATTYRLYRVNYDYYWGQGTQVSVSS | high polyreactivity
QVQLVESGGGLVQAGGSLRLSCAASGSTFSYNAMGWYRQAPGKERELVAGITGRGGSTYYADSEKGRFTISRDNAKNTVYLQMYSLKPEDTAVYYCAADARSYGYPDDFWGQGTQVTVSS | high polyreactivity
QVQLVESGGGLVQAGGSLRLSCAASGLIFASYAMGWYRQAPGKERELVATITVGGSTYYADSVKGRFTISRDNPKNTVYLQMISLKPEDTAVYYCNVGESVPWYEWGALWFSFDYWGQGTQVSVSS | high polyreactivity
QDQLVESGGGLVQAGGSLRLSCAASGSTFVANDMGWYRQAPGKERELVASISDGSSTYADSVKGRFTISRDNAKNTVYLQMNSLKPEDTAVYYCAKDGSLDAQSYDYDYWGQGTQVTVSS | low polyreactivity
QVQLVESGGGLVQAGGSLRLSCAASGSTFTDNGMVWYRQAPGKARELVAGISYSGGSTYYADSVKGRFRISRDNAKNTVYLQMNSLKPEDTAVYYCAADRGGYYLSEYDYWGQVTQVTVSS | low polyreactivity
QVQLVESGGGLVQAGGSLRLSCAASGRIFGGYGMGWYRPAPGKQRELVAAISSGGNTKYADSVKGRFTISRDNAKNTVYLQMNSLKPEDTAVYHCAAKFAQPDYRYDYWGQGTQVTVSS | high polyreactivity
QVQLVESGGGLVQAGGSLRLSCAASGNNFYVYAMGWYRQATGKERELVAAIRWSGGSTYYADSVKGRFTISRDNGKNTVYLQMNSLKPEDTAVYYCAADYYLYEYEYWGQGTQVTVSS | high polyreactivity
QVQLVESGGGLVQAGGSLRLSCAASGSIFGFNTMGWYRQAPGKERELVATINRSGGSTYYADSVKGRFTISRDNAKNTVYVQINSLKPEDTAVYYCAKDVWRHYMNLYDYWGQGTQVTVSS | low polyreactivity
QVQLVESGGGLVQAGGSLRLSCAASGSTFSPNVMGWYRQAPGKERELVAAISSSTGSTNYADSVKGRFTISRDNAKNTVYLQMNSLKPEDTAVYYCAVDPYVHWTTKLYDYWGQGTQVTVSS | low polyreactivity
QVQLVESGGGLVQAGGSLRLSCAASGLIFSPYAMGWYRQAPGKERELVAAISWRGGRTSYADSVKGRFTISRDNAKNTVYLQMNSLKPEDTAVYYCATRNSSKRRGYYYWGQGTQVTVSS | high polyreactivity
QVQLVESGVGLVQSGGSLRLRCAASGFTFVSYALGWYRQAPGKERELVASISKRGGTTYYADSVKGRFTISRENAKNTVYLQMNSLKPEDTAVYYCNARDTRRYVTYDSGYDYWGQGTQVTVSS | high polyreactivity
